The target of one assay is T1, di huNKG2D ECD Fc avi (human, biotinylated at the avi-tag).
T1 construct: Dimeric fusion of human NKG2D ECD to the C-terminus of an avi-tagged human IgG1 Fc
Put plainly: SPR Biacore; IgG captured by anti-Fab, antigen analyte; TraceDrawer fit. Here is the method: (§1) Around 1500 resonance units (RU) of the capture antibody (10 μg/ml human Fab Capture Kit, GE Healthcare Life Sciences, #28958325) were coupled onto a CM5 chip (GE Healthcare, #BR-1005-30) using a BIACORE® B4000 instrument (GE Healthcare) at pH 5.0 by using an amine coupling kit supplied by GE Healthcare. The sample and system buffer was PBS-T (10 mM phosphate buffered saline including 0.05% TWEEN® (polysorbate) 20) pH 7.4. The flow cells were set to 25° C.—and the sample block set to 12° C.—and primed twice with running buffer. The antibody was captured by injecting a ˜10 μg/ml solution for 60 sec at a flow rate of 10 μl/min. Association was measured by injection of di huNKG2D ECD Fc avi (SEQ ID NO: 96) or di cyNKG2D ECD Fc avi (SEQ ID NO: 97) in various concentrations in solution for 180 s at a flow rate of 30 μl/min starting with 600 nM, 300 nM, 150 nM following […] dilutions. The dissociation phase was monitored for up to 450 s and triggered by switching from the sample solution to running buffer. The surface was regenerated by 2×90 s washing with a glycine pH 2.1 solution at a flow rate of 30 μl/min and an additional stabilization period of 180 s. Bulk refractive index differences were corrected by subtracting the response obtained from an anti-human Fab surface. Blank injections were also subtracted (=double referencing). For calculation of KD, kₐ and kd (see Table 8), the Langmuir 1:1 model in the BIACORE® 4000 Evaluation software 1.1 (GE Healthcare) or TraceDrawer 1.6.1 (Ridgeview Instruments AB) were used.
In general terms: In SPR one partner is held on a chip, and binding of the other changes the refractive index at the surface.

The target of another assay is T2, di cyNKG2D ECD Fc avi (cynomolgus, biotinylated at the avi-tag).
T2 construct: Dimeric fusion of cynomolgus NKG2D ECD to the C-terminus of an avi-tagged human IgG1 Fc; also called recombinant cynomolgus NKG2D
Described as above. Here is the method: as §1

For orientation: Kd means a measure of binding affinity in units of concentration. Lower therefore signals a tighter complex. For orientation: koff means the first-order rate constant of dissociation. Read a low koff as a long-lived complex. As usually defined, the kon is a measure of how fast the partners come together. Read a low kon as slower complex formation.

T2 sequence (chain, as listed by the source limits assumed): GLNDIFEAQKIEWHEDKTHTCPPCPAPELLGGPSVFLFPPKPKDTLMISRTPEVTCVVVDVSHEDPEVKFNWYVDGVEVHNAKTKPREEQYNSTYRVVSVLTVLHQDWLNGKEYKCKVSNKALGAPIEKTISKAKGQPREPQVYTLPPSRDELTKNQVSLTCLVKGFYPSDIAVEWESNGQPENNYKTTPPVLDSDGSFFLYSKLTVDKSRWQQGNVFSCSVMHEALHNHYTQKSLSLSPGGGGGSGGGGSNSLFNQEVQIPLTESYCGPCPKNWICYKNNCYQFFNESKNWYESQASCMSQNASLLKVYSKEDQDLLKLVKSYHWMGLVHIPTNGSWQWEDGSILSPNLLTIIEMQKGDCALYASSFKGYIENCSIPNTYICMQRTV

B1: anti-NKG2D antibody 5C5 (IgG) (antibody, V domains shown)
VH: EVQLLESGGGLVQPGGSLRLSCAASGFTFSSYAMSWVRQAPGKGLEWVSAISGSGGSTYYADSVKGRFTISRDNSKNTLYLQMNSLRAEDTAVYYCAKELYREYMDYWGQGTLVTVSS
VL: SSELTQDPAVSVALGQTVRITCQGDSLRSYYASWYQQKPGQAPVLVIYGKNNRPSGIPDRFSGSSSGNTASLTITGAQAEDEADYYCNSRDSFSIHQNVFGGGTKLTVL
notes: also called clone 5C5
In the case of B1, in the assay with di huNKG2D ECD Fc avi, the Kd was determined as 63 nM, the koff came out at 0.014 s⁻¹ and the kon amounted to 220000 M⁻¹ s⁻¹.

B2: anti-NKG2D antibody clone 296 (antibody, V domains shown)
VH: EVQLLESGGGLVQPGGSLRLSCAASGFTFSSYAMSWVRQAPGKGLEWVSAIGIGGGGTYYADSVKGRFTISRDNSKNTLYLQMNSLRAEDTAVYHCAKGASFDFINFFPYWGQGTLVTVSS
VL: DIQMTQSPSSLSASVGDRVTITCRASQGISNDLAWYQQKPGKAPKLLIYAASSLQSGVPSRFSGSGSGTDFTLTISSLQPEDFATYYCQQTYSTPLTFGGGTKVEIK
notes: From transgenic rabbits
With B2, in the assay with di cyNKG2D ECD Fc avi, the dissociation constant (Kd) is 710 nM, the koff came to 0.09 s⁻¹ and the kon was 130000 M⁻¹ s⁻¹.

Values taken from US20240067734A1 (Hoffmann-La Roche, published 2024).
